In paper PMC3462001:

Molecular target: Gab1 (UniProt Q9QYY0)
Assay: co-immunoprecipitation, immunoblot
Settings: reference: wild-type PAR3 with PAR1b; sites S144,S873

binding against the reference: stronger
Substance: PAR3 (from UniProt Q8TEW0) PAR3 S144A/S873A with PAR1b
